Assay results taken from patent US20180037631A1 (Bristol-Myers Squibb, published 2018).

target: T1, EGFR on the surface of human tumour cells (A431, H292) (human, UniProt P00533 25-1210); experiment: cell-based or functional assay

% inhibition of EGFR phosphorylation at 100 nM binder, cell-based assay [%] | Binder
78.5 | E68 (designed binder) 10Fn3 domain: MGVSDVPRDLEVVAATPTSLLISWKTEPGRHQYYRITYGETGGNSPVQEFTVPGGVRTATISGLKPGVDYTITVYAVTDWYNLVSHEYVYHTTPISINYRTEIDKPSQ
75.3 | E67 (designed binder) 10Fn3 domain: MGVSDVPRDLEVVAATPTSLLISWSSVMGLYQYYRITYGETGGNSPVQEFTVPYDVYTATISGLKPGVDYTITVYAVTDYYNPSTYEYKYNTTPISINYRTEIDKPSQ
75 | E66 (designed binder) 10Fn3 domain: MGVSDVPRDLEVVAATPTSLLISWKSYGSAYQYYRITYGETGGNSPVQEFTVPGDLQTATISGLKPGVDYTITVYAITDYYNPDTHEYKYHVSPISINYRTEIDKPSQ
78.9 | E62 (designed binder) 10Fn3 domain: MGVSDVPRDLEVVAATPTSLLISWCLDGQLYQYYRITYGETGGNSPVQEFTVPGSIVTATISGLKPGVDYTITVYAVTDWYNLATHEYNYRVTPISINYRTEIDKPSQ
76.3 | E59 (designed binder) 10Fn3 domain: MGVSDVPRDLEVVAATPTSLLISWRARRLQYQYYRITYGETGGNSPVQEFTVPGMVTTATISGLKPGVDYTITVYAVTDFYNPATMEYTYQRTPISINYRTEIDKPSQ
76.2 | E63 (designed binder) 10Fn3 domain: MGVSDVPRDLEVVAATPTSLLISWDTSGASYQYYRITYGETGGNSPVQEFTVPYSVYTATISGLKPGVDYTITVYAVTDYYDPDSHYYNYNMVPISINYRTEIDKPSQ
79.8 | E61 (designed binder) 10Fn3 domain: MGVSDVPRDLEVVAATPTSLLISWDASQGNYQYYRITYGETGGNSPVQEFTVPGAVKTATISGLKPGVDYTITVYAVTDFFNPATHEYIYHTTPISINYRTEIDKPSQ
80.7 | E65 (designed binder) 10Fn3 domain: MGVSDVPRDLEVVATTPTSLLISWRPTSQVYQYYRITYGETGGNSPVQEFTVPYNVYTATISGLKPGVDYTITVYAVTDFFNYATHEYIYHTIPISINYRTEIDKPSQ
78.2 | E64 (designed binder) 10Fn3 domain: MGVSDVPRDLEVVAATPTSLLISWDSGNGTYQYYRITYGETGGNSPVQEFTVPYRVYTATISGLKPGVDYTITVYAVTDYYNPATHEYTYELRPISINYRTEIDKPSQ
100 | E60 (designed binder) 10Fn3 domain: MGVSDVPRDLEVVAATPTSLLISWLQPLWRYQYYRITYGETGGNSPVQEFTVPGGLDTATISGLKPGVDYTITVYAVTDYKPHVDGPHAYHEYPISINYRTEIDKPSQ

target: T1, EGFR on the surface of human tumour …; experiment: cell-based or functional assay; remark: another data set of the same source

% inhibition of EGFR phosphorylation at 100 nM binder, cell-based assay [%] | Binder
75.8 | E33 (designed binder) 10Fn3 domain: MGVSDVPRDLEVVAATPTSLLISWASRKEVYQYYRITYGETGGNSPVQEFTVPGWLNTATISGLKPGVDYTITVYAVTDYMHVEYAEYPISINYRTEIDKPSQ
80.8 | E37 (designed binder) 10Fn3 domain: MGVSDVPRDLEVVAATPTSLLISWERTSTHYQYYRITYGETGGNSPVQEFTVPGRVYTATISGLKPGVDYTITVYAVTDYYNPATHEYKYHQTPISINYRTEIDKPSQ
83.3 | E44 (designed binder) 10Fn3 domain: MGVSDVPRDLEVVAATPTSLLISWDSEGPSYQYYRITYGETGGNSPVQEFTVPYAVYTATISGLKPGVDYTITVYAVTDYYNPRTHELFFQQYPISINYRTEIDKPSQ
77.3 | E42 (designed binder) 10Fn3 domain: MGVSDVPRDLEVVAATPTSLLISWVVPNWMYQYYRITYGETGGNSPVQEFTVPGMLETATISGLKPGVDYTITVYAVTDYYNPTTYEYTYFTYPISINYRTEIDKPSQ
86 | E32 (designed binder) 10Fn3 domain: MGVSDVPRDLEVVAATPTSLLISWVSLVGFYQYYRITYGETGGNSPVQEFTVPGGVHTATISGLKPGVDYTITVYAVTDYKPHADGPHTYHESPISINYRTEIDKPSQ
75 | E43 (designed binder) 10Fn3 domain: MGVSDVPRDLEVVAATPTSLLISWSGGFMRYQYYRITYGETGGNSPVQEFTVPGQVYTATISGLKPGVDYTITVYAVTDYKPHADGPHTYHESPISINYRTEIDKPSQ
76.7 | E39 (designed binder) 10Fn3 domain: MGVSDVPRDLEVVAATPTSLLISWQVSAFRYQYYRITYGETGGNSPVQEFTVPGMVSTATISGLKPGVDYTITVYAVTDYKPHADGPHTYSEYPISINYRTEIDKPSQ
81.3 | E36 (designed binder) 10Fn3 domain: MGVSDVPRDLEVVAATPTSLLISWESGSRTYQYYRITYGETGGNSPVQEFTVPGGVHTATISGLKTGVDYTITVYAVTDYKPHADGPHTYHEYPISINYRTEIDKPSQ
80.4 | E34 (designed binder) 10Fn3 domain: MGVSDVPRDLEVVAATPTSLLISWLAPFWRYQYYRITYGETGGNSPVQEFTVPGGVRTATISGLKPGVDYTITVYAVTDYKPHADGPHTYHESPISINYRTEIDKPSQ
90.2 | E35 (designed binder) 10Fn3 domain: MGVSDVPRDLEVVAATPTSLLISWTPPGHQHQYYRITYGETGGNSPVQEFTVPGQVTTATISGLKPGVDYTITVYAVTDYYNPATHYYTYYTTPISINYRTEIDKPSQ
89.6 | E40 (designed binder) 10Fn3 domain: MGVSDVPRDLEVVAATPTSLLISWVLGRRVYQYYRITYGETGGNSPVQEFTVPGAVYTATISGLKPGVDYTITVYAVTDYFNPATHEYQYELTPISINYRTEIDKPSQ
89.8 | E38 (designed binder) 10Fn3 domain: MGVSDVPRDLEVVAATPTSLLISWNARTDAYQYYRITYGETGGNSPVQEFTVPRDLETATISGLKPGVDYTITVYAVTDYKPHADGPHTYQESPISINYRTEIDKPSQ
75.2 | E41 (designed binder) 10Fn3 domain: MGVSDVPRDLEVVAATPTSLLISWTPPNSGHNYYRITYGETGGNSPVQEFTVPHDLTTATISGLKPGVDYTITVYAVTDYYNPNTYEYTYQFTPISINYRTEIDKPSQ
80.4 | E45 (designed binder) 10Fn3 domain: MGVSDVPRDLEVVAATPTSLLISWQVPRPMYQYYRITYGEKGGNSPVQEFTVPHDLRTATISGLKPGVDYTITVYAVTDYYDPTSNLYNYNQTPISINYRTEIDKPSQ
